Assay results published in patent publication US6582902B1, “Method for deriving epitopes” (priority 1992, dated 2003).

Test system: anti-g10 serum
Test: Immunoprecipitation of [32P]-labeled in vitro transcribed RNA with anti-g10 serum
Type: binding, rabbit
Conditions: FIG. 4; compared with protein A Sepharose beads alone and pre-immune serum
Method: Various antisera were used to precipitate either [32P] labeled in vitro transcribed D10 RNA or control transcripts. Bound RNA was analyzed on a denaturing 6% polyacrylamide gel by autoradiography. Lanes 1-4 are precipitations of D10 RNA with the following antisera: 1, anti-g10 serum; 2, preimmune serum; 3, no antibody; 4, anti-g10 serum. Other transcripts were precipitated with the anti-g10 serum as follows: 5, a control RNA identical to the D10 epitope but with loop sequence 5′-CACCAUAUAA-3′(SEQ ID NO:5); 6, an unrelated RNA; 7, an RNA containing the loop sequence 5′-CUGACCCCGU-3′(SEQ ID NO:6); 8-11, supernatants from the immunoprecipitations shown in lanes 4-7, diluted to approximate radioactive equivalents.
In vitro transcribed [^32P] radiolabeled RNA was immunoprecipitated with anti-g10 serum or with an anti-U1 RNA serum (EW). Bound RNA was analyzed using a denaturing 6% acrylamide gel and autoradiography: Panel A: The D10 DNA construct (FIG. 2) was cloned into the BamHI site of PGEM-3zf (+) to produce tagged vector RNA, and transcripts with different 3′termini were generated with SP6 RNA polymerase. […] For unexplained reasons, a small amount of endogenous U1 RNA was detected in the presence of total HeLa cell extract (lanes 12-14). […]

B1: D10 RNA: single RNA species selected from the degenerate pool by anti-g10 serum (SEQ ID NO:3); U1 stem II with loop UGGUGGAGCA (nucleic acid)
chain: GGGCCACCAACGACAUUGGGCGAGGCUUAUCCUGGUGGAGCAGGAUGUGCUGACCCCGUUGAUAUAAAUAGUGCCCAUGGAUC
modifications: chemistry not given here
notes: U1 stem II with loop UGGUGGAGCA
  binding / recognition of RNA by anti-g10 serum: bound only to the anti-g10 serum
